The values that follow come from patent US20140178378A1.

The target in the test is IL-6/sIL-6R complex. Kind of test: cell-based or functional assay.

On to “wild type sgp130Fc (from UniProt P40189 23-619) (Fc fusion)”, for which the IC50, inhibition of IL-6/sIL-6R-induced proliferation of BAF3/gp130 cells (MTS cell viability assay, 3 days) amounted to 0.8 µg/mL.
